Experimental data as given in paper PMC2776655 (Circulation research, 2009).
Changes are numbered by the printed parent chain. In names and notes the source's numbering stands.

Experiments:
[1] = molecular target: the molecule itself; experiment: SDS-PAGE in non-reducing conditions
[2] = molecular target: T1, VEGFR-3 (protein used in isothermal titration calorimetry) (UniProt P35916 25-775); experiment: ITC
T1 sequence (looked up): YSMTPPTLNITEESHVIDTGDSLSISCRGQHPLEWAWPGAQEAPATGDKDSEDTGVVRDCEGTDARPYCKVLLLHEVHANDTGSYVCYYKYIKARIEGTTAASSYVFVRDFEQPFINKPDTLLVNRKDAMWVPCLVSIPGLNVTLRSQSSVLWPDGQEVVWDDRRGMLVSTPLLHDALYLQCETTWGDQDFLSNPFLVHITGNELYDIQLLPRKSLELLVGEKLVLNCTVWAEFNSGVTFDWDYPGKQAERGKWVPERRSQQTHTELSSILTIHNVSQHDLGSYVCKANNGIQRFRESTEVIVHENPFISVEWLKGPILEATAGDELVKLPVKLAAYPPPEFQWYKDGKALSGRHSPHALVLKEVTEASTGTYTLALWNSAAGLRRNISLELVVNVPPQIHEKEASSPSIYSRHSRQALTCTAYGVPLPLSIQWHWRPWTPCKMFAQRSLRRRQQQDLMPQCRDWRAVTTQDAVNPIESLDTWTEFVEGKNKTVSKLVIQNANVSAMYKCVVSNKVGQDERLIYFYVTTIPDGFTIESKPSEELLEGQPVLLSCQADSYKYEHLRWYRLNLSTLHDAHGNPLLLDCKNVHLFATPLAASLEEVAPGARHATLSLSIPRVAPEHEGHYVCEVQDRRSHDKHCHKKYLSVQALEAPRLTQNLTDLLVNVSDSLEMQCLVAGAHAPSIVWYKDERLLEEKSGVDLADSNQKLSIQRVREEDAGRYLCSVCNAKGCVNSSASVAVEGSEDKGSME

VEGFR-3-Ig = molecular target: T2, VEGFR-3-Ig (UniProt P35916 25-775); experiment: ELISA
T2 sequence (looked up): T1 sequence (looked up)

VEGFR-2-Ig = VEGFR-2-Ig (UniProt P35968 20-764); experiment: ELISA
[3] = molecular target: the molecule itself; experiment: SDS-PAGE after treatment with DTT

Sequence of VEGFR-2-Ig (P35968 20-764): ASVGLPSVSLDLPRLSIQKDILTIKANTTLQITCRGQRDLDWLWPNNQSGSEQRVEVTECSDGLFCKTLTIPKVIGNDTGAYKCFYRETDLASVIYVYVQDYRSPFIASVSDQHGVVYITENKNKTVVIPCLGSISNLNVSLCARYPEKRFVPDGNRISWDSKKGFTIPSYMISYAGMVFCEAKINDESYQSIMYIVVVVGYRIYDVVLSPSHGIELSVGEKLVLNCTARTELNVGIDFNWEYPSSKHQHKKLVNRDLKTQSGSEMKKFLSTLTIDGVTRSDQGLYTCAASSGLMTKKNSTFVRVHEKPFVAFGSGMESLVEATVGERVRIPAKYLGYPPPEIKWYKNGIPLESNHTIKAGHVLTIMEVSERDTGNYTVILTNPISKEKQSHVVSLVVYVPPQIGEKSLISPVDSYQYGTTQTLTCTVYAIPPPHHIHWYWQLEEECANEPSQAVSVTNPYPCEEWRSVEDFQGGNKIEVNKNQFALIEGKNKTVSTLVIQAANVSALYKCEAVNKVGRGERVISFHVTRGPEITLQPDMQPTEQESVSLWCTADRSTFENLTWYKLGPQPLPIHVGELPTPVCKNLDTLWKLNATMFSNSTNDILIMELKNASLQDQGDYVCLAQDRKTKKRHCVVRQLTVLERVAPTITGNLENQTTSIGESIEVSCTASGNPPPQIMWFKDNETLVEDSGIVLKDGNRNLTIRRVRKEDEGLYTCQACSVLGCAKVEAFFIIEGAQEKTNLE

B1: hVEGF-Csf C137A, from transfected 293T cell medium (ligand, human, UniProt P49767 112-227, looked up)
chain: AHYNTEILKSIDNEWRKTQCMPREVAIDVGKEFGVATNTFFKPPCVSVYRCGGCCNSEGLQCMNTSTSYLSKTLFEITVPLSQGPKPVTISFANHTSCRCMSKLDVYRQVHSIIRR
stoichiometry N [1]: 2

B2: purified human VEGF-Csf (ligand, UniProt P49767 112-227, looked up)
chain: B1 chain with A26C
Kd [2]: 310 ± 50 nM | EC50 (VEGFR-3-Ig): 2.2 ± 0.6 nM | EC50 (VEGFR-2-Ig): 2.6 ± 0.3 nM

B3: purified hVEGF-Csf C137A (ligand, human, UniProt P49767 112-227, looked up)
chain: B1 chain
stoichiometry N [3]: 2 | Kd [2]: 280 ± 30 nM | EC50 (VEGFR-3-Ig): 1.3 ± 0.3 nM | EC50 (VEGFR-2-Ig): 2.7 ± 0.6 nM
